Measurements: US20210355229A1 (JIANGSU HENGRUI MEDICINE, published 2021)
Numbering of substitutions follows the chain as printed. Where two headings read alike, the source gives them in different places. Each block holds one binder with its values, some of them ahead of it.

Assays:
[1] = target: T1, human OX40 on Jurkat-NF-Kb luc-hOX40 cells (human, UniProt P43489 29-277); assay: cell-based or functional assay
T1 sequence (looked up): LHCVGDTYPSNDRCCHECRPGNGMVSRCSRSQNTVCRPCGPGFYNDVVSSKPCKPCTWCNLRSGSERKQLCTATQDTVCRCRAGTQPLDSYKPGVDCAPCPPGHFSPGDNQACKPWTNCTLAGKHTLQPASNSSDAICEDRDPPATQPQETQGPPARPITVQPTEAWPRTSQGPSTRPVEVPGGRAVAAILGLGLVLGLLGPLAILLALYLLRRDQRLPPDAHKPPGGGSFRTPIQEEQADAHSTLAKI

[2] = target: T2, human OX40 (antigen of the ELISA of Example 4) (human, UniProt P43489 29-216, limits assumed); assay: ELISA on human OX40 (Example 4, steps as in Example 2), OD450 against log concentration of antibody
T2 construct: either human OX40-His or human OX40-Fc-biotin
T2 sequence (looked up): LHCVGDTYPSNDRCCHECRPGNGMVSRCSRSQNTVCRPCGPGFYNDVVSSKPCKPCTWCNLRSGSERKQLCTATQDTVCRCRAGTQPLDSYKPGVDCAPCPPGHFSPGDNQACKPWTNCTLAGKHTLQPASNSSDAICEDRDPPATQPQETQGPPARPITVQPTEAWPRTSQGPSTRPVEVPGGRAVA

[3] = target: T3, human OX40-FC-biotin (human OX40 recombinant protein with Fc tag, Acro Biosystems OX40-H5255, labeled with … (human, UniProt P43489 29-216, labeled with biotin (site not stated))); assay: capture ELISA, biotin-OX40-Fc
T3 construct: range 29-216; Bought (Acro Biosystems OX40-H5255; printed once as OXO-H5255), expressed in HEK293; also called human Bio-OX40-FC; not shown: Fc tag of the bought protein
T3 sequence (looked up): T2 sequence (looked up)
Procedure: 20xPBS buffer was diluted to 1 xwith deionized water. […] 100 μL of the diluted primary antibody was added to each well (the antibody to be tested was 5-fold diluted from the concentration of 10000 ng/ml, resulting in seven gradients, namely 10000 ng/ml, 2000 ng/ml, 400 ng/ml, 80 ng/ml, 16 ng/ml, 3.2 ng/ml, and 0.64 ng/ml, blank wells merely contained dilution solution, i.e., 2.5% skimmed milk in PBST), and incubated at 37° C. for 40 minutes. The plate was washed for 4 times with PBST, human OX40-FC-biotin (Acro biosystem, OXO-H5255, labeled biotin) was diluted with 2.5% skimmed milk in PBST, 100 μl was added to each well, incubated at 37° C. for 40 min, and the plate was washed for 4 times with PB ST. 100 μL TMB developing solution was added to each well, incubated for 3-15 minutes in dark at room temperature, 50 μl stop solution (1M sulfuric acid) was added to each well. The parameters were set for the microplate reader, the OD value was read at 450-630nm, and the test data were saved.

[4] = target: T2, human OX40 (antigen of the ELISA of …); assay: ELISA on human OX40 (Example 4, steps as in Example 2), OD450 against log concentration of antibody; remark: listed apart in the source
[5] = target: T1, human OX40 on Jurkat-NF-Kb luc-hOX40 …; assay: cell-based or functional assay; remark: listed apart in the source
[6] = target: T4, human OX40-His protein (sinobiological # 10481-H08H) (human, UniProt P43489 29-216); assay: SPR (Biacore T200), antibody coupled to CM5 chip, OX40-His as analyte, 1:1 model
T4 construct: Bought; analyte in Biacore; not shown: His tag
T4 sequence (looked up): T2 sequence (looked up)
Procedure: Using the kit provided by Biacore, the recombinant anti-OX40 antibody to be tested of the present invention was covalently connected to the CM5 (GE) chip by NHS standard amino coupling method. A series of concentration gradients of human OX40-His protein (sinobiological # 10481-H08H) diluted in the same buffer were then loaded into each cycle at a flow rate of 30 μL/min. After loading, the chip was regenerated using regeneration reagent provided in the kit. The antigen-antibody binding kinetics was traced for 3 minutes, and the dissociation kinetics was traced for 10 minutes. The resulting data were analyzed by using BIAevaluation software (GE) with 1:1 (Langmuir) binding model.

[7] = target: T3, human OX40-FC-biotin (human OX40 …); assay: blocking ELISA: OX40L coated, biotin-OX40-Fc pre-incubated with antibody, SA-HRP
Procedure: The well-plate was coated with the OX40 ligand (Acrobiosystem, OXL-H52Q8), blocked, added the gradient-diluted antibody to be tested (the antibody was diluted in a solution comprising human Bio-OX40-FC (Acrobiosystem, OX40-H5255, labeled with biotin), pre-incubated for 40 minutes, and then added into the plate), incubated for 40 minute, and washed. SA-HRP (Jackson Immunoresearch, 016-030-084) was then added and incubated for 40min. The developing solution and stop solution were added, and the OD value was measured.

B1: chimeric antibody Ch2G3 (antibody, V domains shown)
VH: QVQLKESGPGLVASSQSLSITCTVSGFSLSRYSVHWVRQPPGKGLEWLGMIWDGGNTDYNSALKSRLSISKDNSKSQVFLKMNSLQTDDTAMYYCARNPLYFSYAMDYWGQGTSVTVSS
VL: DIQMTQSTSSLSASLGDRVTISCRASQDISNYLNWYQQKPDGTVKLLIIYTSRLQSGVPSRFSGSGSGTDYSLTISNLEQEDIATYFCQQVNTFPFTFGSGTKLEIK
EC50 (nM), in vitro activation of reporter gene (luciferase, Jurkat-NF-Kb luc-hOX40 cells with Raji cells, anti-CD3 coated) [1]: 0.637 nM
EC50 (read off the curve) [2]: ~0.01 µg/mL

B4: chimeric antibody Ch4B5 (antibody, V domains shown)
VH: QVQLKQSGPGLVQPSQSLSITCTVSGFSLTSYGLHWFRQSPGKGLEWLGVIWSGGSTDYNAAFISRLSISKDDSKSQVFFKMNSLQADDTAIYYCAREEYDVWGTGTTVTVSS
VL: B1 VL with S7T, T8A, I49Y, Q55H, I83V, V91G, F94L, F96W, S100G
EC50 (nM), in vitro activation of reporter gene (luciferase, Jurkat-NF-Kb luc-hOX40 cells with Raji cells, anti-CD3 coated) [1]: 0.559 nM
EC50 [3]: 0.208 µg/mL
EC50 (read off the curve) [4]: ~0.02 µg/mL

B6: humanized antibody 2G3-hu2 (antibody, human IgG1, V domains shown)
VH: QVQLQESGPGLVKPSETLSLTCTVSGGSISRYSVHWIRQPPGKGLEWIGMIWDGGNTDYNSALKSRVTISVDTSKNQFSLKLSSVTAADTAVYYCARNPLYFSYAMDYWGQGTLVTVSS
VL: DIQMTQSPSSLSASVGDRVTITCRASQDISNYLNWYQQKPDQSPKLLIIYTSRLQSGVPSRFSGSGSGTDYTLTISSLQPEDFATYYCQQVNTFPFTFGQGTKLEIK
notes: hu2G3 VH2 + hu2G3 VL1
EC50 [3]: 1.6 µg/mL

B7: humanized antibody 2G3-hu4 (antibody, human IgG1, V domains shown)
VH: B6 VH
VL: B6 VL with D41G, Q42K, S43A, I49Y
notes: hu2G3 VH2 + hu2G3 VL2
EC50 [3]: 2.27 µg/mL

B8: humanized antibody 2G3 (antibody, human IgG1, kappa, V domains shown)
VH: QVQLQESGPGLVKPSETLSLTCTVSGYSISRYSVHWVRQPPGKGLEWIGMIWDGGNTDYNAALKSRFTISRDNAKNTLYLQMNSLRAEDTAVYYCARNPLYFSYAMDYWGQGTLVTVSS
VL: DIQMTQSPSSLSASVGDRVTITCRASQDISNYLNWYQQKPDQSPKLLIIYTSRLQSGVPSRFSGSGSGTDYTLTISSLQPEDFATYYCQQVNTFPFTFGQGTKLEIKR
notes: also called 2G3 (hu2G3 VH1.1 + hu2G3 VL1)
EC50 (nM), activation of reporter gene (luciferase, Jurkat-NF-Kb luc-hOX40 cells with Raji cells, anti-CD3 coated) [5]: 2.29 nM
Kd [6]: 4.63 nM
koff [6]: 0.00202 s⁻¹
kon [6]: 437000 M⁻¹ s⁻¹
IC50 [7]: 1.88 nM

Continued, values first:

EC50 [3]: 0.867 µg/mL
EC50 (read off the curve) [2]: ~0.03 µg/mL
B2: murine monoclonal antibody m2G3 (antibody, V domains shown)
VH: B1 VH
VL: B1 VL
notes: Murine hybridoma monoclonal

EC50 [3]: 0.58 µg/mL
EC50 (read off the curve) [4]: ~0.04 µg/mL
B3: murine monoclonal antibody m4B5 (antibody, V domains shown)
VH: B4 VH
VL: B1 VL with S7T, T8A, I49Y, Q55H, I83V, V91G, F94L, F96W, S100G
notes: Murine hybridoma monoclonal

EC50 [3]: 0.82 µg/mL
B5: humanized antibody 2G3-hu6 (antibody, human IgG1, V domains shown)
VH: QVQLQESGPGLVKPSQTLSLTCTVSGFSLSRYSVHWVRQPPGKGLEWIGMIWDGGNTDYAAPVKGRFTISRDDSKNTLYLQMNSLKTEDTAVYYCARNPLYFSYAMDYWGQGTLVTVSS
VL: B6 VL
notes: hu2G3 VH1.2 + hu2G3 VL1

EC50 (nM), activation of reporter gene (luciferase, Jurkat-NF-Kb luc-hOX40 cells with Raji cells, anti-CD3 coated) [5]: 0.341 nM
EC50 [3]: 0.254 µg/mL
Kd [6]: 2.81 nM
koff [6]: 0.000369 s⁻¹
kon [6]: 131000 M⁻¹ s⁻¹
IC50 [7]: 0.725 nM
B9: humanized antibody hu4B5-V7 (antibody, human IgG1, kappa, V domains shown)
VH: QVQLKESGPGLVKPSETLSLTCTVSGFSLTSYGLHWFRQPPGKGLEWIGVIWSGGSTDYNAAFISRVTISKEDSKSQVSLKLSSVTAADTAVYYCAREEYDVWGQGTTVTVSS
VL: DIQMTQSPSSLSASVGDRVTITCRASQDISNYLNWYQQKPGGVPKLLIYYTSRLHSGVPSRFSGSGSGTDYTLTISSLQPEDVATYYCQQGNTLPWTFGGGTKVEIKR
